The target in this experiment is T1, Angptl2-FLAG (human, UniProt Q9UKU9 23-493).
T1 sequence (looked up): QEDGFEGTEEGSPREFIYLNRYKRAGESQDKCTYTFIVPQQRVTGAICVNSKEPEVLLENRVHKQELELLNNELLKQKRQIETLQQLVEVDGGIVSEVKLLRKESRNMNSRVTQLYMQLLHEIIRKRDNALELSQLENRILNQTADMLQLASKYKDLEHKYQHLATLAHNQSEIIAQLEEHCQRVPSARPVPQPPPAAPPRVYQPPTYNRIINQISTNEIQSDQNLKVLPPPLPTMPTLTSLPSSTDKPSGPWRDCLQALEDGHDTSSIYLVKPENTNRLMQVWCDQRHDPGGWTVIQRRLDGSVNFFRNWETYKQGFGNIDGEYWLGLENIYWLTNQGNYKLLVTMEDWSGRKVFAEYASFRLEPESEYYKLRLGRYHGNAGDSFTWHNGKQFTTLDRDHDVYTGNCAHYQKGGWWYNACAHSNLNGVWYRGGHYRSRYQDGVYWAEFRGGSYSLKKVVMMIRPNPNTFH
Nature of the experiment: co-IP.

B1: LILRB2 extracellular domain (ECD) fused to human IgG-Fc (Fc fusion, UniProt Q8N423 22-460, looked up)
chain: QTGTIPKPTLWAEPDSVITQGSPVTLSCQGSLEAQEYRLYREKKSASWITRIRPELVKNGQFHIPSITWEHTGRYGCQYYSRARWSELSDPLVLVMTGAYPKPTLSAQPSPVVTSGGRVTLQCESQVAFGGFILCKEGEDEHPQCLNSQPHARGSSRAIFSVGPVSPNRRWSHRCYGYDLNSPYVWSSPSDLLELLVPGVSKKPSLSVQPGPVMAPGESLTLQCVSDVGYDRFVLYKEGERDLRQLPGRQPQAGLSQANFTLGPVSRSYGGQYRCYGAHNLSSECSAPSDPLDILITGQIRGTPFISVQPGPTVASGENVTLLCQSWRQFHTFLLTKAGAADAPLRLRSIHEYPKYQAEFPMSPVTSAHAGTYRCYGSLNSDPYLLSHPSEPLELVVSGPSMGSSPPPTGPISTPGPEDQPLTPTGSDPQSGLGRHLGV
As to B1, the binding result was “binds”.
